Experiments:
human serum albumin = biological target: T1, human serum albumin (human, UniProt P02768 25-609); experiment: ELISA with Expi293 culture medium used directly, coated HSA, anti-Fc detection
T1 construct: Negative control protein; also called HSA
Procedure: (§1) FIG. 6. […] The VNAR-Fc fusion proteins were transiently expressed using Expi293 expression system. VNAR-Fc constructs contained signal peptide sequence in order to be secreted. Cell growth media was used directly in ELISA. HSA and mouse TfR2 were used as negative controls for unspecific binding. A clone in position 52 represents untransfected cells. Total Fc concentration was measured with capture and detection anti-Fc antibody pair using irrelevant VNAR-Fc at known concentration for standard curve.
(§2) The next day the plates were blocked with […] with 0.1% Tween20 (PBST) for 1 hour at room temperature. Transfected cells were spun down at 2000 rpm for 10 minutes and the collected supernatant was mixed with milk in PBST to a final 2.5% concentration and incubated for 30 minutes. 100 μl of blocked supernatant was transferred into coated plates and incubated for 1 hour. […] The plates were washed and developed with TMB detection solution before stopping the reaction with 1% HCl. Absorbance was measured at 450 nm. A VNAR-Fc at know concentration was used for standard curve to calculate VNAR-Fc expression level.

recombinant mouse TfR2 = biological target: T2, recombinant mouse TfR2 (mouse, UniProt Q9JKX3 103-798, limits assumed); experiment: ELISA with Expi293 culture medium used directly, coated mouse TfR2, anti-Fc detection
T2 construct: Negative control protein
T2 sequence (looked up): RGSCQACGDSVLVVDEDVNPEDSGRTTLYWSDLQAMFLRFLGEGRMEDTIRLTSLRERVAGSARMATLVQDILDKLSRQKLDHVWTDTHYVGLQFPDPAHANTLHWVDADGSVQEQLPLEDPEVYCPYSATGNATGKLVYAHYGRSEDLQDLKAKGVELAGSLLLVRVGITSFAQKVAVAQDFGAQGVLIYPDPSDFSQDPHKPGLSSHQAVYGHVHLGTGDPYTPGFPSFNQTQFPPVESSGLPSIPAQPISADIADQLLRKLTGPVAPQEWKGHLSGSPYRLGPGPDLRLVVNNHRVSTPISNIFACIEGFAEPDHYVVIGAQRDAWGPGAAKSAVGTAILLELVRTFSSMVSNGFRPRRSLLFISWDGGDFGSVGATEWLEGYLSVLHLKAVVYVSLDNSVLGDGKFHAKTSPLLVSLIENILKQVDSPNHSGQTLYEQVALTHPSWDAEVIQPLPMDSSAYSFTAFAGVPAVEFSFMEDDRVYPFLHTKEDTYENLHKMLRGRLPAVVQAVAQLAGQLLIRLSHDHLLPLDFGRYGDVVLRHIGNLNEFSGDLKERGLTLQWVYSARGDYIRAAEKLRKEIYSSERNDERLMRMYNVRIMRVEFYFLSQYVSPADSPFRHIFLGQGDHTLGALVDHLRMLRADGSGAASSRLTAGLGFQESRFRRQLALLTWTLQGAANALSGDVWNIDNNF
Procedure: as §1, §2

[1] = biological target: T3, recombinant human TfR1 (transferrin receptor 1) (human, UniProt P02786 89-760); experiment: ELISA with Expi293 culture medium used directly, coated human TfR1, anti-Fc detection, absorbance at 450 nm
T3 construct: Bought recombinant His-tagged protein; also called hTfR1
Procedure: as §1, §2

T3 sequence (P02786 89-760 limits assumed): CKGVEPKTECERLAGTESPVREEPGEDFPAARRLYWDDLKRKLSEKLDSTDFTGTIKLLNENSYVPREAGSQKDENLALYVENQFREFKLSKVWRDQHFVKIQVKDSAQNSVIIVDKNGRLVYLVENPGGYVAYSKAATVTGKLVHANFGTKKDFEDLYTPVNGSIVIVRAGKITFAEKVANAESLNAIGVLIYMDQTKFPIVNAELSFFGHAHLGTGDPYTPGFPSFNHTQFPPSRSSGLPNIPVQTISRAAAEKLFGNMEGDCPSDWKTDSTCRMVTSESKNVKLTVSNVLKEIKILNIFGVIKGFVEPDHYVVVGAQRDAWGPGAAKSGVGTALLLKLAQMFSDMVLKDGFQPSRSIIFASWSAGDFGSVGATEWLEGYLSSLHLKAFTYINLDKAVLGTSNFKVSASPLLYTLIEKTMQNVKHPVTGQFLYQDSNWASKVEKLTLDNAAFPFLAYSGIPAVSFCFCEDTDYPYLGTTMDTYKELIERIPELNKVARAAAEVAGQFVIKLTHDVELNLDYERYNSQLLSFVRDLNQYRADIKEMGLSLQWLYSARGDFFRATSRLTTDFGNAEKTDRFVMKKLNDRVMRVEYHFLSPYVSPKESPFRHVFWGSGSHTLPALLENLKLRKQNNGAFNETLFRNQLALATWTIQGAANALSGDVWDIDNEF
T1 sequence (P02768 25-609 limits assumed): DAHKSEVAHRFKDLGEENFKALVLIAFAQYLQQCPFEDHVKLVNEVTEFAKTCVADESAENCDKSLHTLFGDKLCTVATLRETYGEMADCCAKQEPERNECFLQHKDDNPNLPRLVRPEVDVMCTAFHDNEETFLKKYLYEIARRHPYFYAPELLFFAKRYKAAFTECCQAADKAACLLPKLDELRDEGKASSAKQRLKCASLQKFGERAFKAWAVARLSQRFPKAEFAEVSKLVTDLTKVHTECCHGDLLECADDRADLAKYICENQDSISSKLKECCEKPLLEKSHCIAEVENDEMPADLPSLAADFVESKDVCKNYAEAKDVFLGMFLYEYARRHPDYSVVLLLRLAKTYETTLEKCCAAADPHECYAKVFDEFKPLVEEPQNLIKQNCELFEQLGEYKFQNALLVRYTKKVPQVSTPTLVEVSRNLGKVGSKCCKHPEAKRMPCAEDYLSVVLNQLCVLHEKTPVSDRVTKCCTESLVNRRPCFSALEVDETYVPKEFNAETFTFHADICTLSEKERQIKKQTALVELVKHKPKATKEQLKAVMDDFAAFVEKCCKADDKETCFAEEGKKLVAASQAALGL

B1: Clone 11 VNAR-Fc fusion protein (Fc fusion)
chain: ARVDQTPQTITKETGESLTINCVLRDSNCALPSTHWYRKKSGSTNEESISKGGRYVETVNSGSKSFSLRINDLTVEDSGTYRCKVLNFFTHTCVQVQKYDVYGGGTAVTVNA
notes: Bivalent VNAR-Fc; not shown: glycine/serine linker (GxSx)n extending the hinge; human IgG1 Fc (hinge, CH2, CH3) of pFUSE-hIgG1e3-Fc2; G236 also deleted
B1: no binding (human serum albumin); no binding (recombinant mouse TfR2); binds [1].
